Results reported in the supplement of paper PMC12455559.

assay: purified protein yield per well (BCA); higher = higher soluble expression
Procedure, shortened: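 Candidate enzymes were expressed in E. coli C41(DE3) in 2 mL autoinduction cultures with 100 µg/mL kanamycin, at 37 °C for 2 h and then 18 °C for 40 h. Cells were lysed, and protein was bound to Ni-charged magnetic beads and released by SUMO protease cleavage on an OT-2 robot. The read-out is purified protein yield per well, measured with the Pierce Rapid Gold BCA kit. Values below 25 ug (0.1 mg/mL) are below the detection threshold.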

Purified protein yield per well, < 25 µg:
QIGPDPTSSSLNATSGPFAVSTSTVAIASGFGGGTIYYPTTTGQYGVIAVSPGFTATQSSIAWLGRRLATHGFVVITIDTLTTLDQPASRATQLVAALNYVVNSATSTVRSRVDSSKRAVAGHSMGGGGALIAAQNNPGLKASLPLTPWNLSTNFSQNQVPTLIFGSDGDTVAPVAVHSRPFYASLPSSTYKAYAELNLATHFTPNSTNTPIGRYGVAWMKRFIDSDTRYSAFLCGAEHQAYATALVFDRYNQNCPY [ESM113], QNCDSLLLESITNPGPYSVNDIDESAGIRNGSDYSGSTIYYPVNSNGNYASIVLVPGYMNTESTIQNWGPFLASHGIVTMTIGTNSLTDNHIQRKDALLDAIISLKNENNRLASPLYAKLATTTIAVGGFSKGGGGAQLAAVDAPDLKAVVALYPWLDNPSQSDLNHNIPVIIVSGELDLIAPPSSHADVHYDYTPNTTNKLKYEVEFASHDALSGPTGGNGEVGKRVFSWLQTYLLDDSCYCPLMLVPATTSSEYITNIVCDNVTQVSEFSYANKKLIKVIDLLGREAKENKNTPLFYIYDDGTVEKKIIIE [TEP087], QNCGNISLNNITNPGPYGYLTMDQNDGLRDGPDYGNATVYYPTNTTTPFACVSIVPGFFSTQSSVAAWGPFLASHGIVSIIFDTNSLFDSPADRADGLLDALETMRQENTRTASPLFGLIDESRFGVMGWSMGGGGAQLAAVIDPSLKAVIALCPWLNSPNSNTLNHTVPVLILSGELDPTAPPDLHADVHFDLTPNTTDKLLFEVDGGDHSIANDPANAQGDIGKYGLAWLRNYLLDDPCHCPLVLLPSTETSNTMTNVVCPPTLACPIQLTLFNNLIADGTYKAIQTVTSASMVPLSGNVSLKAEQSIFLDCGFSVDSGAAFEAVIQICN [TEP048], QNPFERGPAPTTASLEASRGPFATSSFTVSRPSGYGAGTVYYPTNAGGTVGAIAIVPGYTARQSSINWWGPRLASHGFVVITIDTNSTLDQPSSRSRQQLAALDQVATLARTSSSPIYNKVDTTRMGVMGWSMGGGGSLISAENRPSLKAAAPQAPWNSSTNFSSVTVPTLIFACENDSIAATGSHASPMYNSMSRNPKQYLEINGGSHSCANSGNSNQALIGKKGVAWMKRYMDNDTRYTSFACANPNSTRVSDFRVARCS [ESM086], QNPYERGPAPSTASLEASRGPFATSSFTVSRPSGYGAGTVYYPTNAGGTVGAIAIVPGYTARQSSINWWGPRLASHGFVVITIDTNSTSDQPASRSRQQLAALDQVATLNSTSSSPIYNKVDTSRMGVMGWSMGGGGSLISAQNRSSLKAAAPQAPWNSSTNFSSVTVPTLIFACESDAIARVGSHASPMYNSMTRNPKQFMEIEGGSHSCANSGNSNQALIGKKGVAWMKRFMDNDTRYTSFACSNPNSTRVSDFRVARCS [ESM114], QNPYERGPAPTTSSLEASRGPFSTSSFTVSRPSGYGAGTVYYPTNAGGTVGAIAIVPGFTARQSSINWWGPRLASHGFVVITIDTNSTLDQPASRSRQQLAALDQVATLARTSSSPIYNKVDTTRMGVMGWSMGGGGSLISAQNRPSLKAAAPQAPWNGSTSFGSVTVPTLIFACENDSIAPVGSHASPMYNSMTRNPKEFIEIDGGSHSCANSGNSNQALIGKKGVAWMKRFMDNDTRYTSFACANPNSTRVSDFRVARCS [ESM066], QPIDSLETLSIKEQSTITLPTTLATKIPLTEVPATKIPLTTTTSTSPTSNCIPDSVITAAELSATRDNGPFTVATKSVPRQLANGFGGGTIHYPTNAGDCGLLGGIAVIPGYVSYEASIKWWGPRLASWGFVVITIDTNSIYDDPDSRATQLSAALDHILSDSTVGAQIDSTRLGAIGWSMGGGGALQLATKRSDIRVIIPQTPYHDKDYGNMDTPALFITCQNDRIASNKKYSSPFYNNAAGAKMKIEIKNGSHFCPSYRFNEILLSKPGIAWMHRYINGDTRFDKFLCNNENYGNSPRISAYDYKDCG [TEP174], QQIGPNPTSAQLNATSGPFAVSSSNVLIASGFGGGTIYYPTQSGSYGVIAVCPGFTGTSSSISWFARRLATHGFVTIAMDTNTLLDQPDSRATQLRAALNYLINNSSSTIRSRINPNLRGVAGHSMGGGGTLIASASDSTLKVGIPLTPWNLSSLPFYSIRVPQLVFGADGDTIAPYAVHARPFYNAIPSTTKKAYALLQSASHFTPNTTDERIGRYGVAFAKRWVYNDTRYSTFLTGAEHNAYNNILRFQTYLHNGPY [DP062], QQTGPDPTSASLNATAGPFAVSTATVTSPVGFGGGTIYYPTIAGQYGVVALSPGFTATQSSVAWLGRRIATHGFVVVTINTNSTLDQPASRANQLIAALNYVANSASTTVRSRVDASRRAVGGHSMGGGGSLIAAQNNPSLKAILPLTPWNLSTNFSGVQVPTLIVGADGDAVAPVASHARPFYASLPSTVRKAYGELNMASHSTPTSGVNTPIGRYGVTWMKRFVDGDTRYSTFLCGAEHQAYATATVFDRYSQNCPY [ESM127], QSAGGNPYAIGPDPTASSLEASSGPFGYTSTTIPSSEATGYGGGTVYYPANVNIATGGIVVVPGYGATQSNISWWGPRLASNGFVVYTIDTTNIYDLPAQRAKEIMAAVAQLKTFSTTTGNEIYGKVDTNRIGIMGGSFGGGGTLIAETTHPQLKAAIPFVPKIASGNPDLSKITIPTLIIGCQEDQVAPPKSYAIPYYSAIPEQNHKAYLEISNGQHLCASTQGSDQNKPIIGKYGVAWMKRFIDNDSRYNPYLCGSPHQTDVSNSTVISGYKDTCPY [DP020], QSNPYARGPDPTTAALEASRGPFAFSSFSVTRPSGYGAGTVYYPTNAGGTVGAIAIVPGFFARQSSINWWGPRLASHGFVVITIDTNSTFDQPASRASQQMAALRQVATLAGTSSSPIYRKVDTARLGVMGWSMGGGGTLLAARDNPSLKAAAPQAPWNSSTTNFSSMTVPTLIIACESDSTAPTRSHAEPFYTSMSRNSKQYLEINNGSHSCANGGSNTGLLGKKGVAWMKRFMDEDRRYTSFACSNPNSSAVSDFRTANCS [ESM149], QSNPYQKGPDPTHASIEADGPYAVSTQALKGSGFGSGTVYSPNAAGSYALVAVCPGFVSAQSSIAQISRRLATHGFVVVTIDTNTIFDFPDSRSTQLLAALKAVAALSTGPAAGKIDTARQAVAGWSMGGGGTLLAAGSTPALKGAVAYAPWALNNNLKASKVPAAILGGTADIVAPPGIFADVFYKAIPAGSSKLLGIVKGADHFFSNTASQPASYTTVAWFKRFVDNDTRYGPFLNGDTRYSRFSYTGPF [TEP040], QSNPYQRGPAPTASSLEASRGPLAISQFTVSRPSGYRAGTVYYPTNAGGTVGAIAVVPGYTAYQSDINWWGPRLASWGFVVITIDTNSTLDQPSSRSRQQLAALDQVAALSRTSSSPIYNKVDTSRMGVMGWSMGGGGSLISTENRPSLKASIPFAPWNSTSSFSSVVTPTFIIACQSDIIAPVASHADDFYDSLSRPPKMFLEIRGGSHYCANSSNNDKGLLGSKGVAWMKRYIDNDTRFTSYACSNPNTLAVSDFRTARCS [ESM104], QSNPYQRGPNPTRAALMTDGPYAVATASVWPYIYGFGGGTIYYPTGTTETFGGIAVSPGFTADSTSLAWFGRRLASHGFVVIVINTNSRFDFPDSRASQLQAAIDYLRTNSPAAVRARLDENRIAVAGHSMGGGASLRASERLPWLKASVPLTPWHTDKTFSTSVPQLIIGAEWDTIAPVSSHAIPFYNNLPSSTPKVYLELNNATHFAPNTTNATISLYAISWMKRWVDNDTRYNQFLCGVNHTADPSISDYRTNAWTYCP [DP073], QSTTPTSSALNATAGPLAVSTSTVTLASGFGGGTIYYPTTAGSYGLIALCPGFTATETSLAWLARRLASWGFVVVNMNTTTTMDQPASRATQLMAALKYALNSSSSAVRARIDPSRLAVAGHSMGGGGTLIAARDNPTLKAGYPLTPWNSSTNFSGVTVPTMIIGSDGDTVAPVAQHARPFYASLPAATFKAYGELNNATHFTPNSTSTPIGRYGVAWMKRFLDGDTRYSTFLCGSEHAAYATSLVFDRYNQNCPY [ESM187], QSYVHGPDPTTAALETTGPYAVSNTKIAAPSGYGGGTVYYPTTNTEGAFAVVSVTPGFTEKQSAINWLGPLLASHGFVVVTIDTKTALDAPSSRAKQMIAALKQVSGLSANSTSPFAGRVDGTRQAVMGHSMGGGGSLDAARDNPTLKASIPMAPWETVKNYSTMTVPTLIVSCESDTIAPVASHANKFYDSFTPTLNKALLEMKGVGHSCTNSTTSAALKAVIGKYSISWLKRFADNDNRYSDFLCGASHQADVSGSLISTYKENCPY [DP066], QTNPYARGPNPTASSLEASTGPFAYRSFTVSRPSGYGAGTVYYPTNAGGTVGAIAIVPGYTARQSSINWWGPRLASHGFVVITIDTNSTLDQPSSRSRQQMAALQQVASLNSTSSSPIYGKVDTSRMGVMGWSMGGGGSLISARDNPSLKAAAPQAPWNTSSSFSSMTVPTLIFACESDSIAPVNSHASPMYNSMRSNPRQYLEINNGSHSCANSGNSNQALIGKKGVAWMKRYMDNDTRYSTFACQNPNSTRVSDFRVANCS [ESM094], QTNPYARGPNPTDSLLEASRGPFSISSFTVSRPSGYGAGTVYYPTNAGGTVGAIAIVPGYTARQSSINWWGPRLASHGFVVITIDTNSTLDQPSSRSRQQMAALSQVVSLSRTSTSPIYNKVDASRLGVMGWSMGGGGSLISARDNPSIKAAAPQAPWNTSSNFSSMTVPTLIFACENDSIASTSSHASPMYNSMRLNPRQYFEINNGSHSCANSGNSNQALIGKRGVAWMKRFMDNDTRYTSFACSNPNTFSVSEFRTANCS [ESM180], QTNPYARGPNPTRDSLEASRGPFAFSSFTVSRPSGYAGGTVYYPTNAGGTVGAIAVVPGFSARQSSINWWGPRLASHGFVVITIDTNSSFDQPPSRSRQQLAALDQVATLARTSGSPIYNKVDTTRMGVMGSSMGGGGSMISAQNRPSLKAAIPQSPSVSSTNFSSVVVPTLIFACENDTVPPGGSQAVAIYNSMMLNPKQLLEIAGGSPFCGNSN [ESM182], QTNPYERGPAPTTASLEASRGPFSISSFTVSRPSGYGAGTVYYPTNAGGTVGAIAIVPGFLARQSSINWWGPRLASHGFVVITIDTNSTLDQPASRSRQQLAALDQVAALARTSSSPIYNRVDTTRMGVMGWSMGGGGTLISAQNRPSIKAAAPQAPYNSSTNFSSVTVPTLIFACENDTVAPVNRHASPFYSSMSRNSKQYLEINGGSHSCANSGNSNQPLIGKKGVAWMKRFMDNDTRYTPFACANPNSTRVSEFRTANCS [ESM073], QTNPYERGPAPTTSSLEASRGPFSYQSFTVSRPSGYRAGTVYYPTNAGGPVGAIAIVPGFTARQSSINWWGPRLASHGFVVITIDTNSTLDQPDSRSRQQMAALSQVATLSRTSSSPIYNKVDTSRLGVMGWSMGGGGSLISARNNPSIKAAAPQAPWSASKNFSSLTVPTLIIACENDTIAPVNQHADTFYDSMSRNPREFLEINNGSHSCANSGNSNQALLGKKGVAWMKRFMDNDRRYTSFACSNPNSYNVSDFRVAACN [ESM158]
